These results are taken from the RNAGym collection of RNA variant scans (doi:10.7554/elife.80360).

Sequences and labels used below:
B1: Hairpin Ribozyme (parent)
chain: GUCCUCUUUCACGUGCGCGUGAAAGAGAGAAGUGAACCAGAGAAACACACGUUGUGGUAUAUUACCUGGUA

Variants of B1 are the subject of this data set. In words: self-cleavage, relative activity (ratio to wild type); higher = more cleavage; co-transcriptional.
Turning to G19C G21U, the self-cleavage was found to be 0.718.
The figure for G17U C66G is 0.158; for G40A C65U it is 0.435; for A11C C37G it is 0.435.
Next, A31U G51U: 0.121; U33G G68C: 0.0688.
Turning to A44U A71G, the self-cleavage came out at 0.293.
Regarding A24U C48A, the self-cleavage is 0.0466.
Take U2G G34U: the self-cleavage came out at 0.984.
The figure for G25C U55A is 0.163; for G29U U52C it is 0.178.
The figure for G25C A43C is 0.0652.
Next, U33G C48A: 0.158.
G25C G42A: the self-cleavage came out at 0.174.
Next, C3A A61G: 0.186; U7A C18G: 0.802.
Turning to A35G A45C, the self-cleavage worked out at 0.106.
On to G27A U67G, for which the self-cleavage was 0.175.
As for A28U C66A, the self-cleavage stood at 0.194.
Next, C12G U58C: 0.762; C48G G51U: 0.17; C18A A41G: 0.76.
The figure for A39U G69A is 0.157.
Next, G40C G54U: 0.0743; A43U A71G: 0.247; G34A U60C: 1.5.
G27U G57U: the self-cleavage was 0.144.
As for U62C G69C, the self-cleavage worked out at 0.0631.
Take G29A C65G: the self-cleavage came to 0.158.
The figure for C38G U53G is 0.206; for U9G A47U it is 0.0873; for G32A G51C it is 0.113.
The figure for U7A U52G is 0.733.
The figure for G19U G21A is 0.875; for G13C A30G it is 0.114; for A28C A64U it is 0.237.
Regarding C50U U63C, the self-cleavage came out at 0.217.
The figure for C37U A71G is 0.779; for G13C G51C it is 0.681; for C6A C12A it is 0.52.
Next, U7A G15A: 0.909.
The figure for C16G U33C is 0.188.
For the variant C4A G54A, the self-cleavage worked out at 0.184.
Take U62A U70A: the self-cleavage came out at 0.143.
The figure for A30U U52G is 0.0874.
Next, G21U G69C: 0.293; G17U G21C: 0.661; U63A A64U: 0.198.
Consider C6U G68U, for which the self-cleavage came to 0.239.
Next, U5G A22G: 0.251.
Next, C6A A43C: 0.197.
Next, A35U G69A: 0.184.
As for G15A G21A, the self-cleavage is 0.831.
The figure for C3U G32U is 0.102; for G51U U67A it is 0.236.
For C50A U60C, the self-cleavage was determined as 0.419.
Consider A23C U52C, for which the self-cleavage is 0.77.
Next, G29C A71U: 0.21.
With A22C G34C, the self-cleavage was determined as 1.22.
The figure for G15C C48G is 0.109; for U7C A44G it is 0.0315.
The figure for G27A G68A is 0.241.
Next, C16G G34C: 1.22; A30C G56C: 0.0453.
Take G13C C66G: the self-cleavage stood at 0.129.
Next, A59C G68U: 0.138; C10U U33C: 0.0734; C3A G29C: 0.102.
The figure for U7G A61C is 0.261; for C16U G21U it is 0.991.
Next, A22U C38A: 0.155.
In the case of C10U C46G, the self-cleavage was found to be 0.0871.
The figure for U14G C38G is 0.119; for C6A U70A it is 0.598; for G21A U33C it is 0.116.
In the case of A30C U70A, the self-cleavage was determined as 0.159.
The figure for C12A A47G is 0.0872; for U14C U70C it is 1.15.
Next, A28C U52C: 0.584; U58G C65G: 0.146; A41U U67G: 0.534.
Take A23G G42C: the self-cleavage is 0.33.
Next, C46G G69A: 0.179.
Next, C16G A28U: 0.483.
Next, G34U A36G: 0.909; G19A G68U: 0.242; A23U C66G: 0.222.
As to U2A G32A, the self-cleavage is 0.0985.
The figure for A23U G51A is 0.844; for G25A A28C it is 0.394.
In the case of U2C U20G, the self-cleavage was determined as 0.0615.
Next, U8C C66G: 0.0616; G40C A59G: 0.0907.
The figure for A11U U20G is 0.907.
C6A U20A: the self-cleavage turned out to be 0.551.
Next, U2C C16A: 0.0439; A24G A45G: 0.104.
Next, A23U U60C: 0.749; A43C G69U: 0.161.
The figure for G17U U53A is 0.841.
With A39U C66A, the self-cleavage stood at 0.121.
Next, U70C: 0.924; A11C C65U: 0.431; C37A U67G: 0.202.
Next, U14A A43C: 0.15; G57A U62C: 0.117; G27U C65U: 0.125.
The figure for G54C U62C is 0.108; for A39G A61C it is 0.139.
Consider A49U C65U, for which the self-cleavage came to 0.0248.
The figure for U2G A44U is 0.0754; for A23C A31C it is 0.185.
Next, G17C A39C: 0.528.
The figure for G13A A36U is 0.491; for A39U C46U it is 0.114; for A26G A39C it is 0.571.
For the variant G1U A22U, the self-cleavage is 0.119.
The figure for C4U U8C is 0.241; for C37G A61C it is 0.112; for G19U U62G it is 0.24.
Next, G32U U67A: 0.171.
The figure for A44C C65A is 0.213; for G32C C48G it is 0.121; for G13A G57C it is 0.164.
In the case of G54A A59U, the self-cleavage is 0.148.
For G54A A59G, the self-cleavage was found to be 0.17.
The figure for G54A G68U is 0.227; for A28C A30C it is 0.0316; for A31U U58G it is 0.18.
The figure for A22U U60G is 0.611; for G27A A39U it is 0.166; for G27A A39G it is 0.121.
The figure for U8A C38U is 0.357; for C3G U52G it is 0.212; for A41U U55G it is 0.485.
Consider U55C A64C, for which the self-cleavage stood at 0.102.
The figure for G56A U62G is 0.293; for U7C C10G it is 0.597.
The figure for G1C C10A is 0.102; for A39C A45C it is 0.174.
With U33G U52G, the self-cleavage came out at 0.0362.
Next, G13U G54U: 0.588; G40A G42A: 0.0412; C16A A23C: 0.983.
The figure for G13C G54C is 0.161.
As for U7G G57A, the self-cleavage worked out at 0.149.
Next, G25C U53G: 0.39.
Next, G27A A31C: 0.193; U5C G32C: 0.0586.
Next, G57C U58C: 0.258; C4G U70C: 0.214.
With A22U A45U, the self-cleavage turned out to be 0.143.
As for U2C G42C, the self-cleavage came to 0.108.
Take G34C A41U: the self-cleavage worked out at 1.42.
Next, G13A U14G: 0.538.
Next, A30C G42U: 0.111; U2G C12U: 0.321; U2G C12A: 0.304.
Next, C48A U67C: 0.137; A30C A35G: 0.217; A30C A35U: 0.156.
G13U A39U: the self-cleavage turned out to be 0.257.
Next, G25C G40U: 0.12; C10A G40A: 0.219; A30G G57C: 0.0397.
The figure for U5C G13A is 0.591; for A30C C65U it is 0.12.
